Reference: patent US9487562B2, “Stabilized polypeptides as regulators of RAB GTPase function” (President and Fellows of Harvard College, priority 2011, dated 2016)
Entries after “also recorded” stand apart in the source; their conditions may differ. Bridge positions count the residues as written; N and C are the ends. Square brackets hold non-standard residues; d marks the D form. Ends that are not written are not given here. * marks the point of attachment. FITC = O=C1OC2(c3ccc(O)cc3Oc3cc(O)ccc32)c2ccc(NC(=S)*)cc21; Met(O) = CS(=O)CC[C@H](N)C(=O)O; S5 = C=CCCC[C@](C)(N)C(=O)O

Columns and labels:
[1] = molecular target: T1, RAB11 (Homo sapiens, UniProt P62491); assay: Fluorescence polarization binding of FITC-FIP/FITC-RFP peptides to RAB11; conditions: for binding affinity to RAB11: FITC peptide 15 nM, fluorescence polarization; for binding to RAB11: in the presence and absence of GTP, FITC peptide
T1 construct: RAB11 (residues 1-175) was expressed with an N-terminal GST-tag with an internal thrombin cleavage site; GST (thrombin cleavage site between tag and RAB11) (N); made in house; host or cells: Escherichia coli BL21(DE3) pLysS
T1 sequence (P62491 1-175): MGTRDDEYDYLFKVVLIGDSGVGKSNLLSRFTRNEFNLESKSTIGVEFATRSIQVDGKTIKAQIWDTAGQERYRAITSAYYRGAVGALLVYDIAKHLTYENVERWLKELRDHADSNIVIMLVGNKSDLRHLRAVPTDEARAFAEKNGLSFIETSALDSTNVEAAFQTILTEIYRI
Procedure: Fluorescence polarization (FP) was used to measure FIP peptide binding to RAB11 and RAB25 proteins. […] This indicated specificity in the binding measurement, as this subtle change would be expected to perturb binding.
(§1) RAB11/25 protein binding assays were performed by incubating FITC-FIP or FITC-RFP (stapled FIP derivatives) peptides (15 nM) with three-fold dilutions of recombinantly-expressed, purified RAB11, RAB25 or a various epitope-tagged version of either in protein-binding buffer (25 mM Tris-HCl, pH 8.0, 150 mM NaCl, 1 mM EDTA, 1 mM DTT, 10 mM MgCl2, 10 mM GTP). Dilutions and incubations were made in 384-well, black flat-bottom plates (Corning) to a total volume of 40 μL and equilibrated for 60 minutes. Polarization was measured on a Spectramax-M5 multi-label plate reader with λex=485 nm and λem=525 nm. Polarization was calculated according to the standard equation: P=(V−H)/(V+H), where P=polarization, V=vertical emission intensity and H=horizontal emission intensity. Kd values were determined by fitting data to a variable-slope sigmoidal binding curve using Prizm 4 graphing software.
(§2) RAB11 and RAB25 proteins were expressed and purified in Escherichia coli strain BL21(DE3) pLysS (Stratagene) as epitope-tagged fusion proteins in various vectors (Novagen). RAB25 (residues E7-Q180) was expressed with an N-terminal GST- and hexahistidine tag with internal thrombin and TEV cleavage sites (GST-H6-RAB25) (SEQ ID NO: 86) in a pET41-1 vector (Novagen) or with an N-terminal hexahistidine tag alone with an internal thrombin cleavage site (H6-RAB25) (SEQ ID NO: 86) in a pET28 vector (Novagen). FIP3 protein (residues 649-756) was expressed with an N-terminal GST-tag with an internal TEV cleavage site (GST-FIP3) in a pGEX6p-1 vector (Novagen). RAB11 (residues 1-175) was expressed with an N-terminal GST-tag with an internal thrombin cleavage site in a pGEX5x-1 vector (Novagen). Transformed bacteria was grown at 37° C. until an OD600=0.8 was reached, at which point the culture was induced with 0.5 mM isopropyl β-D-1-thiogalactopyranoside (IPTG). Induced cells were grown at 30° C. for 6 hours, pelleted and lysed in binding buffer (25 mM Tris-HC;, pH 8.0, 150 mM NaCl, 1 mM EDTA, 1 mM DTT, 10 mM MgCl2, 10 mM GTP) supplemented with a complete protease inhibitor tablet (Roche) by sonication on ice. The lysate was centrifuged at 14,000 rpm to clear insoluble matter prior to loading onto Ni-NTA resin (Qiagen) for hexahistdine-tagged constructs or on GST-bind agarose resin (Biorad) for GST-tagged constructs. The protein-bound bead slurry was washed 4× with ˜20 mL of buffer and retained protein was eluted with either 250 mM imidazole or 20 mM glutathione in buffer for H6-(SEQ ID NO: 86) or GST-proteins, respectively. The eluent was concentrated using a 30 kD exclusion filter and purified by size-exclusion chromatography on a Superdex-75 Column (Amersham Pharmacia Biotech). Fractions containing purified protein were pooled, concentrated and dialyzed into binding buffer or other similar buffer for specific biochemical assays.

[2] = molecular target: T2, RAB25 (Homo sapiens, UniProt P57735); assay: Fluorescence polarization binding of FITC-FIP/FITC-RFP peptides to RAB25; conditions: FITC peptide 15 nM
T2 construct: RAB25 (residues E7-Q180) was expressed with an N-terminal GST- and hexahistidine tag; made in house; host or cells: Escherichia coli BL21(DE3) pLysS
T2 sequence (P57735 7-180): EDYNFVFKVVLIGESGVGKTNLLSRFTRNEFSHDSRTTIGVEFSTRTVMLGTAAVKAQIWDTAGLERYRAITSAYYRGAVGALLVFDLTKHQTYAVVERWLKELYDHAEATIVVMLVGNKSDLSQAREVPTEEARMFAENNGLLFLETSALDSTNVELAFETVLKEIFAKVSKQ
Procedure: as §1, §2

[3] = tested on: RAB25; assay: as above
Procedure: as §1, §2

[4] = Circular dichroism spectra / percent helicity; type: physicochemical; conditions: 20° C. in water, peptides at 50 μM
Procedure: We next investigated the structural stability of the RFPs by obtaining circular dichroism (CD) spectra for each peptide. All measurements were made at 20° C. in water with peptides at 50 μM. […] By comparison, stapled FIP peptides (RFPs) show helical CD spectra indicated by minima at approximately 208 and 222 nm (FIG. 11B).
A circular dichroism spectrometer (Jasco J-710, Japan) was used to determine the α-helical content of all peptides. Peptides were dissolved in water to a final concentration of 50 μM in a quartz cuvette with a path length of 1 cm. Absorbance values were taken at 1 nm intervals between 190 and 260 nm for buffer alone and for peptide solutions. The background (buffer) spectrum was subtracted from experimental spectra, which were subsequently subjected to baseline-normalization and curve-smoothing within the spectrometer software. Percent-helicity was calculated from the absorbance at 222 nm using helical models as previously reported in Chen Y H et al., Biochemistry, 13, 3350-9 (1974).

[5] = Peptide thermal stability by CD at 222 nm; type: physicochemical; conditions: CD at 222 nm over 10-90° C.
Procedure: Peptide thermal stability was measured by scanning the peptide CD at 222 nm over a temperature range (10-90° C.). A sigmoidal unfolding curve was apparent for helices of unmodified FIP peptides (FIP4) with a Tm of ˜34° C. (FIG. 12A).
Peptide thermal stability experiments were performed in a similar manner to circular dichroism experiments in Example 5. Peptide solutions were cooled to 10° C. in a temperature controlled CD-chamber and circular dichroism absorbance at 222 nm was measured at 1 degree intervals while the solution was heated to 90° C. 222 nm CD values were plotted as a function of temperature and fitted to a sigmoidal denaturation curve, with the half-maximal temperature representing the Tm.

[6] = molecular target: RAB25 (UniProt P57735); assay: ALPHAscreen competition
[7] = molecular target: GST-H6-RAB25 (UniProt P57735); assay: AlphaScreen competition
[8] = molecular target: RAB11 (UniProt P62491); assay: fluorescence polarization
[9] = molecular target: RAB25 (UniProt P57735); assay: fluorescence polarization
[10] = molecular target: GST-RAB11 (UniProt P62491); assay: … titration (hook effect), approximately 10 nM GST-RAB11
[11] = molecular target: T3, RAB25 (UniProt P57735 7-180); assay: fluorescence polarization (FIG. 19B, RAB25); reference peptide not named
T3 construct: range 7-180; Target of the fluorescence polarization assays; also called H6-RAB25
T3 sequence (looked up): T2 sequence (P57735 7-180)
Procedure: as §1, with “MgCl_2,” for “MgCl2,”, “µL” for “μL”, “$\lambdaex$=485” for “λex=485”, “$\lambdaem$=525” for “λem=525”, “K_d” for “Kd”

FIP4: wild-type unmodified FIP4 peptide (EQEEINFRLRQYMDKIILAILDHNPSILEIKH) [reference compound]
binding affinity to RAB11 [1]: micromolar
binding affinity to RAB25 [2]: micromolar
relative affinity RAB11 versus RAB25 (selectivity) [3]: tighter binding to RAB11 than RAB25
CD curve shape / secondary structure [4]: partially unfolded/helical structure
Tm [5]: ~34 °C

FIP1: unmodified RAB family interacting protein 1 (class I) peptide (KKEFQVRELEDYIDNLLVRVMEETPNILRIPA) [reference compound]
binding affinity to RAB11 [1]: little or no binding
binding affinity to RAB25 [2]: little or no binding

FIP3 protein (from UniProt O75154 649-756)
IC50 [6]: 10.1 µM
IC50 [7]: 10 µM

RFP31: triple-alanine mutant negative control, SEQ ID NO: 84 (RINFRLQNXIDRXAARIAETNPSILEVK; not fully specified; hydrocarbon staple)
binding affinity to RAB11 [1]: negligible affinity
binding affinity to RAB25 [2]: negligible affinity

RFP17: stapled FIP peptide of second design set, SEQ ID NO: 78 (FIG. 7, top to bottom) (RINFRLQN[S5]IDR[S5]IVRIFETNPSILEVK; staple 9-13; not fully specified (C-terminus))
bias for RAB11 versus RAB25 ([1]; ratio of affinities RAB11 vs RAB25): equivalent affinity
Tm [5]: 54 °C

FIP3(726-56)
IC50 [6]: 14.1 µM

unmodified FIP3 peptide
Kd [8]: 1.7 µM
Kd [9]: > 5 µM

FIP2: unmodified RAB family interacting protein 2 peptide (ERDTHIRELEDYIDNLLVRVMEETPSILRVPY) [reference compound]
binding affinity to RAB11 [1]: little or no binding
binding affinity to RAB25 [2]: little or no binding

FITC-RFP1-Ox: chemical derivative of FITC-RFP1 containing an oxidized methionine at a critical hydrophobic interaction site with RAB11 ({FITC}-KQEEINFRLQDYIDRIIVAI[Met(O)]ETNPSILEVK)
binding to RAB11 [1]: decreased binding; also recorded: dose-dependent binding

RFP24: stapled FIP peptide containing an E-R mutation to increase overall charge, SEQ ID NO: 82 (RINFRLQN[S5]IDR[S5]IVRIFETNPSILRVK; staple 9-13; not fully specified (C-terminus))
binding affinity to RAB25 [2]: retained binding affinity

FITC-RFP1: unmodified FIP3 peptide conjugated to FITC ({FITC}-KQEEINFRLQDYIDRIIVAIMETNPSILEVK)
binding to RAB11 [1]: dose-dependent binding

ERDTHIRELEDYIDNLLVRVMEETPSILRVPY (also: N-terminal FITC (FP) or biotin (ALPHASCREEN)) [unmodified FIP2 peptide]
concentration of biotinylated peptide at maximum signal [10]: 40 nM

B1: RFP31 (peptide)
peptide: RINFRLQN[S5]IDR[S5]AARIAETNPSILEVK
modifications: staple 9-13; also: N-terminal cap differs by assay: FITC or diethyleneglycol-biotin
notes: Negative control in which the I/V/M contact residues are changed to alanine; also called triple-alanine mutant negative control
fold decrease in binding affinity [11]: ~100 fold
